Changes are numbered by the printed parent chain.
T1: human TREM2 (human, UniProt Q9NZC2 19-174, limits assumed)
T1 construct: also called triggering receptor expressed on myeloid cells 2
T1 sequence: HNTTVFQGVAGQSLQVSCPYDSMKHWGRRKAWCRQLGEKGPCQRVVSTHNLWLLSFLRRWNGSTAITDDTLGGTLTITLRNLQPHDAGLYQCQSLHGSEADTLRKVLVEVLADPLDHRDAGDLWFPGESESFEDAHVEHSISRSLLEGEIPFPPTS

B1: V37 (antibody, V domains shown)
VH: EVQLVQSGAEVKKPGESLKISCKGSGYSHTSYWIAWVRQMPGKGLEWMGIIYPGDSDTRYSPSFAGQVTISADKSISTAYLQWSSLKASDTAMYFCARSRTFYYDSSDYFDYWGQGTLVTVSS
VL: DIQMTQSPSSVSASVGDRVTITCRASQGISSWLAWYQQKPGKAPKLLIYAASSLQWGVPSRFSGSGSGTDFTLTISSLQPEDFATYFCQQADSYPRTFGQGTKLEIK
notes: also called 6E7 variant V37
B2: V63 (antibody, V domains shown)
VH: B1 VH with H29F, T30R, A65Q
VL: B1 VL with W56R, S93R, Y94F
notes: also called 6E7 variant V63
B3: V76 (antibody, V domains shown)
VH: B1 VH with H29F, T30G, S63E, A65Q, S99Q, F110S
VL: B1 VL with W56K, T69R, Y94F
notes: also called 6E7 variant V76; LV-109/HV-110
B4: V39 (antibody, V domains shown)
VH: B1 VH with H29F, T30G, S61N, A65Q, S99G
VL: B1 VL with Q55V, W56N, Y94S
notes: also called 6E7 variant V39
B5: V75 (antibody, V domains shown)
VH: B1 VH with H29F, A65Q, S99G
VL: B1 VL with W56A
notes: also called 6E7 variant V75
B6: V52 (antibody, V domains shown)
VH: B1 VH with H29F, T30E, A65Q, S99G
VL: B1 VL with W56R, S93R, Y94F
notes: also called 6E7 variant V52; LV-107/HV-107
B7: V74 (antibody, V domains shown)
VH: B1 VH with H29F, T30A, T58V, A65Q, S99G
VL: B1 VL with W56L, Y94F
notes: also called 6E7 variant V74
B8: V88 (antibody, V domains shown)
VH: B1 VH with H29F, T30G, A65Q, S99Q
VL: B1 VL with S53R, W56R, Y94S
notes: also called 6E7 variant V88
B9: V53 (antibody, V domains shown)
VH: B1 VH with H29F, S63H, A65Q, S99Q
VL: B1 VL with W56N, Y94F
notes: also called 6E7 variant V53
B10: V41 (antibody, V domains shown)
VH: B1 VH with H29F, I50T, A65Q, S99Q
VL: B1 VL with W56N, Y94F
notes: also called 6E7 variant V41
B11: V40 (antibody, V domains shown)
VH: B1 VH with H29F, T30G, T58V, A65Q, S99Q, F110S
VL: B1 VL with W56L, S93R, Y94F
notes: also called 6E7 variant V40
B12: V50 (antibody, V domains shown)
VH: B1 VH with H29F, T30G, I50V, A65Q, S99Q, F110L
VL: B1 VL with L54R, W56N, Y94L
notes: also called 6E7 variant V50
B13: V77 (antibody, V domains shown)
VH: B1 VH with H29F, A65Q, S99Q
VL: B1 VL with L54R, W56N, Y94F
notes: also called 6E7 variant V77
B14: V73 (antibody, V domains shown)
VH: B1 VH with H29F, T30G, S63G, A65Q, S99G
VL: B1 VL with L54R, W56N
notes: also called 6E7 variant V73; LV-106/HV-109
B15: V49 (antibody, V domains shown)
VH: B1 VH with H29F, T30N, I50T, Y60L, A65Q
VL: B1 VL with L54R, W56N
notes: also called 6E7 variant V49; LV-106/HV-106
B16: V85 (antibody, V domains shown)
VH: B1 VH with H29F, T30R, I50T, A65Q
VL: B1 VL with L54R, W56N, Y94F
notes: also called 6E7 variant V85
B17: V61 (antibody, V domains shown)
VH: B1 VH with H29F, T30S, S61N, A65Q, S99G
VL: B1 VL with Q55V, W56N, Y94L
notes: also called 6E7 variant V61
B18: V60 (antibody, V domains shown)
VH: B1 VH with S28H, H29F, T58V, A65Q, S99Q, F110S
VL: B1 VL with W56R, Q89G, Y94F
notes: also called 6E7 variant V60; LV-108/HV-108
B19: V38 (antibody, V domains shown)
VH: B1 VH with H29F, T30G, T58V, A65Q, S99Q
VL: B1 VL with L54R, W56N, Y94H
notes: also called 6E7 variant V38
B20: V64 (antibody, V domains shown)
VH: B1 VH with H29F, T30Q, A65Q, S99G
VL: B1 VL with Q55A, W56N
notes: also called 6E7 variant V64
B21: V65 (antibody, V domains shown)
VH: B1 VH with H29F, A65Q
VL: B1 VL with W56N, Y94F
notes: also called 6E7 variant V65
B22: V62 (antibody, V domains shown)
VH: B1 VH with H29F, T30G, S61A, A65Q, S99Q, D108G
VL: B1 VL with W56R, Q89G, Y94F
notes: also called 6E7 variant V62
B23: V84 (antibody, V domains shown)
VH: B1 VH with S28G, H29F, A65Q, S99Q, F110S
VL: B1 VL with A50G, W56N, Y94F
notes: also called 6E7 variant V84
B24: V86 (antibody, V domains shown)
VH: B1 VH with H29F, T30G, I34L, A65E
VL: B1 VL with L54R, W56N, Y94F
notes: also called 6E7 variant V86
B25: V51 (antibody, V domains shown)
VH: B1 VH with H29F, T58V, A65Q, S99G, Y112N
VL: B1 VL with L54R, W56N, Y94F
notes: also called 6E7 variant V51
B26: V48 (antibody, V domains shown)
VH: B1 VH with H29F, T30G, T58V, A65Q, S99M
VL: B1 VL with W56T, Y94L
notes: also called 6E7 variant V48
B27: V87 (antibody, V domains shown)
VH: B1 VH with H29F, T30R, T58V, S63D, A65Q
VL: B1 VL with Y94F
notes: also called 6E7 variant V87
B28: V72 (antibody, V domains shown)
VH: B1 VH with H29F, A35G, A65Q, S99G
VL: B1 VL with Q55V, W56N
notes: also called 6E7 variant V72
B29: V89 (antibody, V domains shown)
VH: B1 VH with H29F, A65Q, S99Q
VL: B1 VL with W56N, Y94H
notes: also called 6E7 variant V89

What follows are binders tested against T1, human TREM2 (assay: 2nd screen, 10 nM).

Binding Signal	Binder
3.49 fold over 6E7 parental antibody	B1
3.71 fold over 6E7 parental antibody	B2
4.93 fold over 6E7 parental antibody	B3
5.81 fold over 6E7 parental antibody	B4
4.52 fold over 6E7 parental antibody	B5
3.09 fold over 6E7 parental antibody	B6
4.01 fold over 6E7 parental antibody	B7
5.3 fold over 6E7 parental antibody	B8
1.17 fold over 6E7 parental antibody	B9
1.72 fold over 6E7 parental antibody	B10
4.16 fold over 6E7 parental antibody	B11
4.16 fold over 6E7 parental antibody	B12
1.38 fold over 6E7 parental antibody	B13
5.44 fold over 6E7 parental antibody	B14
6.58 fold over 6E7 parental antibody	B15
5.37 fold over 6E7 parental antibody	B16
5.22 fold over 6E7 parental antibody	B17
3.63 fold over 6E7 parental antibody	B18
4.36 fold over 6E7 parental antibody	B19
5.48 fold over 6E7 parental antibody	B20
2.75 fold over 6E7 parental antibody	B21
2.89 fold over 6E7 parental antibody	B22
1.62 fold over 6E7 parental antibody	B23
5.02 fold over 6E7 parental antibody	B24
3.18 fold over 6E7 parental antibody	B25
2.54 fold over 6E7 parental antibody	B26
3.93 fold over 6E7 parental antibody	B27
4.01 fold over 6E7 parental antibody	B28
1.46 fold over 6E7 parental antibody	B29

The binders below were run against T1, human TREM2 (assay: 1st screen, 10 nM Ab).

Binding Signal	Binder
3.46 fold over 6E7 parental antibody	B1
3.76 fold over 6E7 parental antibody	B2
4.57 fold over 6E7 parental antibody	B3
6.15 fold over 6E7 parental antibody	B4
4.64 fold over 6E7 parental antibody	B5
3 fold over 6E7 parental antibody	B6
3.94 fold over 6E7 parental antibody	B7
4.92 fold over 6E7 parental antibody	B8
1.25 fold over 6E7 parental antibody	B9
1.74 fold over 6E7 parental antibody	B10
4.48 fold over 6E7 parental antibody	B11
4.1 fold over 6E7 parental antibody	B12
1.43 fold over 6E7 parental antibody	B13
5.12 fold over 6E7 parental antibody	B14
6.51 fold over 6E7 parental antibody	B15
5.41 fold over 6E7 parental antibody	B16
5.08 fold over 6E7 parental antibody	B17
3.26 fold over 6E7 parental antibody	B18
4.34 fold over 6E7 parental antibody	B19
5.41 fold over 6E7 parental antibody	B20
2.05 fold over 6E7 parental antibody	B21
2.49 fold over 6E7 parental antibody	B22
1.44 fold over 6E7 parental antibody	B23
4.8 fold over 6E7 parental antibody	B24
2.81 fold over 6E7 parental antibody	B25
2.42 fold over 6E7 parental antibody	B26
3.84 fold over 6E7 parental antibody	B27
3.64 fold over 6E7 parental antibody	B28
1.33 fold over 6E7 parental antibody	B29

The binders below were run against T1, human TREM2 (assay: 2nd screen, 2 nM).

Binding Signal	Binder
3.69 fold over 6E7 parental antibody	B1
4.91 fold over 6E7 parental antibody	B2
4.34 fold over 6E7 parental antibody	B3
5.11 fold over 6E7 parental antibody	B4
3.74 fold over 6E7 parental antibody	B5
1.78 fold over 6E7 parental antibody	B6
2.54 fold over 6E7 parental antibody	B7
5.57 fold over 6E7 parental antibody	B8
0.66 fold over 6E7 parental antibody	B9
0.58 fold over 6E7 parental antibody	B10
3.41 fold over 6E7 parental antibody	B11
3.39 fold over 6E7 parental antibody	B12
0.83 fold over 6E7 parental antibody	B13
4.17 fold over 6E7 parental antibody	B14
5.02 fold over 6E7 parental antibody	B15
5.41 fold over 6E7 parental antibody	B16
3.63 fold over 6E7 parental antibody	B17
3.35 fold over 6E7 parental antibody	B18
3.44 fold over 6E7 parental antibody	B19
4.88 fold over 6E7 parental antibody	B20
1.29 fold over 6E7 parental antibody	B21
1.87 fold over 6E7 parental antibody	B22
1.45 fold over 6E7 parental antibody	B23
5.17 fold over 6E7 parental antibody	B24
1.83 fold over 6E7 parental antibody	B25
2.3 fold over 6E7 parental antibody	B26
4.86 fold over 6E7 parental antibody	B27
2.5 fold over 6E7 parental antibody	B28
0.94 fold over 6E7 parental antibody	B29

From patent US20250326839A1 (VIGIL NEUROSCIENCE, published 2025)
